Data on 30 sequences can be found in the nanobody polyreactivity screen of Harvey et al. (2022).

A short description of this series: yeast display, Sf9 membrane polyspecificity reagent, FACS + sequencing; frameworks hold sequencing errors. Summed up:
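Nanobodies came from a synthetic yeast display library in Saccharomyces cerevisiae BJ5465, induced with galactose for 36–48 hours and stained for 1 hour at 4 °C with 10% biotinylated, detergent-solubilized Sf9 membrane reagent. Cells were enriched on streptavidin microbeads and then FACS-sorted, with low and high (top ~1%) gates set on anti-HA fluorescence for expression and streptavidin fluorescence for reagent binding. Each polyreactivity label reflects the gate a clone came from. Genes were amplified by colony PCR, sequenced by MiSeq 2 × 250 and filtered by CDR length.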
Take “QVQLVESGGGLVQAGGSLRLSCAASGRIFLFYTMGWYRQAPGKERELVAGITFSGGSTYYADSVKGRFTISRDNAKNTVYLQMNSLKPEDTAVYYCNARRWWQSYDYWGQGTQVTVSS”: the “polyreactivity (PSR sort gate)” value was “high polyreactivity”.

For “QVQLVESGGGLVQAGGSLRLSCAASGRIFLGNAMGWYRPAPGKERELVAAITNGGGSTYYADSVNGRFTISRDNAKNTVYLQMNSLKPEDTAVYYCAAQRWTVKYNYWGQGTQVTVSS”, the “polyreactivity (PSR sort gate)” value is “high polyreactivity”.

Turning to “QVQLVESGGGLVQAGGSLRLSCAASGRIFLGNAMGWYRQAPGKERELVDAITYSGRSTYYADSVKGRFTISRDNAKNTVYLQMNSLKPEDTAVYYCAARQYWTTDLPFQRYYYWGQGTHVTVSS”, the “polyreactivity (PSR sort gate)” value is “low polyreactivity”.

With “QVQLVESGGGLVQAGGSLRLSCAASGRIFLGYAMGWYRQAPGQERELVASITSSGGSTYYADSVKGRFTISRDNAKNTVYLLMNSLKPEDTAVYYCAKVGHYRWGWLSRAASDYWGQGTQVTVSS”, the “polyreactivity (PSR sort gate)” value is “high polyreactivity”.

In the case of “QVQLVESGGGLVQAGGSLRLSCAASGRIFLGYTMGWYRQAPGKERELVAAISKSGDSTYYADSVKGRFTISRDNAKNTVYLQMNSLKPEDTAVYYCAKDYGGRLYYYWGQGTQVTVSS”, the “polyreactivity (PSR sort gate)” value is listed as “high polyreactivity”.

With “QVQLVESGGGLVQAGGSLRLSCAASGRIFLIYAMGWYRQAPGKERELVAAISWSGGSTYYADSVKGRFTISRDNAKNTVYLQMNSLKPEDTAVYYCNADDVNYGYYSWYDYWGQGTQVTVSS”, the “polyreactivity (PSR sort gate)” value is “low polyreactivity”.

In the case of “QVQLVESGGGLVQAGGSLRLSCAASGRIFLLNAMGWYRQAPGKERELVADISFNGGSKYYADSVKGRFTISRDNAKNTVYLQMNSLKPEDTAVYYCNADAHNLWFRYYYWGQGTQVTVSS”, the “polyreactivity (PSR sort gate)” value is reported as “low polyreactivity”.

“QVQLVESGGGLVQAGGSLRLSCAASGRIFLPYAMGWYGQAPGKERELFASISGSGGRTYYADSVKGRFTISRDHANNTVYLQMISQKPEDTAVYYCANRPVYAGYRFNYWGQGTQLTVSS”: the “polyreactivity (PSR sort gate)” value was “high polyreactivity”.

Regarding “QVQLVESGGGLVQAGGSLRLSCAASGRIFLQYDMGWYRQAPGKERELVAGISSRGGSMYYADSVKGRFTISRDNAKNTVYLQMNSLKPEDTAVYYGAAQTKRIRYVYKHYYWGQGTQVTVSS”, the “polyreactivity (PSR sort gate)” value is “high polyreactivity”.

In the case of “QVQLVESGGGLVQAGGSLRLSCAASGRIFLRNAMGWYRQAPGKERELVANITSRGGSTYYADSVKGRFTISRDNAKNTVYLQMNSLKPEDTAVYYCAADPRRYRGFGYVYGGFYYWGQGTQVTVSS”, the “polyreactivity (PSR sort gate)” value is on record as “low polyreactivity”.

Take “QVQLVESGGGLVQAGGSLRLSCAASGRIFLRNTMGWYRQAPGTERELVAAITGRGGSTYYADSVKGRFTISRDNAKNTVYLQMNSLIPEDTAVYYCAARSPGYSPPGPVRLSDYWGQGTQVTVSS”: the “polyreactivity (PSR sort gate)” value is reported as “high polyreactivity”.

For “QVQLVESGGGLVQAGGSLRLSCAASGRIFLRYAMGWYRQAPGKERELVAVITWSGGSTYYADSVKGRFTISRDNAKNTVYLQMNSLKPEDTAVYYCAADWYPTGFYYWGQGTQVTVSS”, the “polyreactivity (PSR sort gate)” value is “low polyreactivity”.

For the sequence “QVQLVESGGGLVQAGGSLRLSCAASGRIFLTYAMGWYRQAPGKERELVAAISGRGGSTYYADSVNGRFTISRDYAKNTVYLQMNSLKPEDTAVYYCAAAKWVIQTGNYYYWGQGTQVTVSS”, the “polyreactivity (PSR sort gate)” value is on record as “low polyreactivity”.

In the case of “QVQLVESGGGLVQAGGSLRLSCAASGRIFLTYAMGWYRQAPGKERELVAAISTSGTRTYYADSVKGRFTISRDNAKNTVYLQMNSLKPEDTAVYYCAREKYNYRTYEYWGQGTQVTVSS”, the “polyreactivity (PSR sort gate)” value was “high polyreactivity”.

“QVQLVESGGGLVQAGGSLRLSCAASGRIFLTYAMGWYRQAPGKERELVAAITDNGGDTYYADSVKGRFTISRDNAKNTVYLQMNSLKPEDTAVYYCAKTTLSVAGLDFDYWGQGTQVTVSS”: the “polyreactivity (PSR sort gate)” value was “low polyreactivity”.

On to “QVQLVESGGGLVQAGGSLRLSCAASGRIFLVNAMGWYRQAPGKEREFVAAITDNTGSTYYADSVKGRFTISRDNAKNTVYLQMNSLKPEDTAVYYCAKQRGNKRIGYDSWGQGTQVTVSS”, for which the “polyreactivity (PSR sort gate)” value is reported as “low polyreactivity”.

Take “QVQLVESGGGLVQAGGSLRLSCAASGRIFLVYAMGWYRQAPGKERELVATIRSGGRTNYADSVKGRFTISRDNAKNAVYLQMNSLKPEDTAVYYCNAPPYTSSDQDPAGDYEYWGQGTQVTVSS”: the “polyreactivity (PSR sort gate)” value is on record as “high polyreactivity”.

“QVQLVESGGGLVQAGGSLRLSCAASGRIFLVYGMGWSRQAPGKERELVASITDRGGSTYYADSVKGRFTISRDNAKNTVYLQMYSLKPEDTAVYYCAADGAFYASTEMDYWGQGTQVTVSS”: the “polyreactivity (PSR sort gate)” value was “low polyreactivity”.

In the case of “QVQLVESGGGLVQAGGSLRLSCAASGRIFLWNAMGWYRQAPGKERELVAGIRWSTGSTYYADSVKGRFTISRDNAKNTVYLQKNSLKREDTAVYYCNARSFATGSKVPARGYWGQGTQVTVSS”, the “polyreactivity (PSR sort gate)” value was “high polyreactivity”.

“QVQLVESGGGLVQAGGSLRLSCAASGRIFLYNDMGWYRQAPGKERELVATITWNVTSTYYADSVKGRFTISRDNAKYTVYLQLNSLKPEDTAVYYCARGDHVGSAGYDYWGQGTQVTVSS”: the “polyreactivity (PSR sort gate)” value is “low polyreactivity”.

“QVQLVESGGGLVQAGGSLRLSCAASGRIFLYNGMGWYRQAPGKERELVAGITTGGNTNYADSVKGRFTISRDNAKNTVYLQMNSLKPEDTAVYYCAAEVIVYGWSPDYDYWGQGTQVTVSS”: the “polyreactivity (PSR sort gate)” value was “low polyreactivity”.

Regarding “QVQLVESGGGLVQAGGSLRLSCAASGRIFLYTAMGWYRQAPGKERELVAAIDGGGTTYADSVKGRFTISRDNAKNTVYLQMNSLKPEDTAVYYCAGDWYYQYSIYRYGYWGQGTQVTVSS”, the “polyreactivity (PSR sort gate)” value was “low polyreactivity”.

As to “QVQLVESGGGLVQAGGSLRLSCAASGRIFLYYAMGWYRQAPGKERELVAAITRSGGTTYYADSVKGRFTISRDNAKNTVYLQMNSLKPEDTAVYYCAALGQYSRADYEYWGQGTQVTVSS”, the “polyreactivity (PSR sort gate)” value is given as “high polyreactivity”.

Consider “QVQLVESGGGLVQAGGSLRLSCAASGRIFLYYAMGWYRQAPGKERELVAGISTGGSTNYADSVKGRFTISRDNAKNTVYLQMNSLKPEDTAVYYCAVVDVEEHVGHWGQGTQVTVSS”, for which the “polyreactivity (PSR sort gate)” value is on record as “low polyreactivity”.

As for “QVQLVESGGGLVQAGGSLRLSCAASGRIFMPYAMGWYRQARGKERELFAAITSTGGSTYYADSVKGRFTISRDNAKNTVYIQMNSQKPEDTAVYYCNARRGYQPHRRDYWGQGTQVTLSS”, the “polyreactivity (PSR sort gate)” value is on record as “low polyreactivity”.

For “QVQLVESGGGLVQAGGSLRLSCAASGRIFNANAMGWYRPAPGKESELVAAISSSGGSTYYSDSVKGRFTISRDNAKNTVYLHMNSLKPEDTAVYYCKDEWGWRYSSDFDYWGQGTQVTVSS”, the “polyreactivity (PSR sort gate)” value is recorded as “low polyreactivity”.

As to “QVQLVESGGGLVQAGGSLRLSCAASGRIFNAYAMGWYRQAPGKERELVATITGSGGRTHYADSVKGRFTISRDNAKNTVYLQMNSLKPEDTAVYYCAATAQYYHYHLAKYDYWGQGTQVTVSS”, the “polyreactivity (PSR sort gate)” value is “low polyreactivity”.

Take “QVQLVESGGGLVQAGGSLRLSCAASGRIFNHYAMGWYRQAPGKERELVASITSGAGTNYADSVKGRFTISRDNAKNTVYLQMNSLKPEDTAVYYCNADLYDYYYSDGDYWGQGTQVTVSS”: the “polyreactivity (PSR sort gate)” value is “high polyreactivity”.

With “QVQLVESGGGLVQAGGSLRLSCAASGRIFNLYVMGWYRQAPGKERELVATISSGGSTNYADSVKGRFTISRDNAKNTVYLQMNSLKPEDTAVYYCAAREWRSFDYWGQGTQVTVSS”, the “polyreactivity (PSR sort gate)” value is recorded as “low polyreactivity”.

On to “QVQLVESGGGLVQAGGSLRLSCAASGRIFNLYVMGWYRQAPGKERELVATISSGGSTNYADSVKGRFTISRDYAKNTVYLQMNSLKPEDTAVNYCAKPYIVYYTMDYWGQGTQVTVSS”, for which the “polyreactivity (PSR sort gate)” value is on record as “low polyreactivity”.
